Assay results: publication PMC11483992
Where “and” joins values, the source holds several entries; their conditions need not be identical. Equal values may be shown once.

Experiments:
AS25_(A57G) = experiment: ITC; Abl SH2 in the syringe (200 µM, or 300 µM for AS25 Y45A-A57G) titrated to the monobody in the cell (20 µM, or 30 µM); 50 mM Tris pH 7.0, 250 mM NaCl, 5% glycerol; 25 °C
AS25_(Y45A-A57G) = experiment: as above
monobody AS25 = experiment: as above
AS25 A57G monobody = experiment: ITC; Abl SH2 in the syringe (200 µM; 300 µM for AS25 Y45A-A57G) titrated to the monobody in the cell (20 µM; 30 µM for AS25 Y45A-A57G); 25 °C; 50 mM Tris pH 7.0, 250 mM NaCl, 5% glycerol; two replicate experiments
AS25 Y45A-A57G monobody = experiment: as above
Chain of AS25 Y45A-A57G monobody (main, as listed by the source Y45A A57G): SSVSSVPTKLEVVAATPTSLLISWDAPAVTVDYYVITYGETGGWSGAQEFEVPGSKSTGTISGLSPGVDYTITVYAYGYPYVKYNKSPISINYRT

AS25 monobody = experiment: as above

Chain of monobody AS25 (main, as listed by the source): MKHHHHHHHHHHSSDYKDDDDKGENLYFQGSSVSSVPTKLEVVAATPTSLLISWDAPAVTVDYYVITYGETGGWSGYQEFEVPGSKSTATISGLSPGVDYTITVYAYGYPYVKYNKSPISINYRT
Chain of AS25_(Y45A-A57G) (main, as listed by the source Y45A A57G): as the sequence (main, as listed by the source) above, with Y77A, A89G counted along it
Chain of AS25_(A57G) (main, as listed by the source A57G): as the sequence (main, as listed by the source) above, with A89G counted along it

- Kd (AS25_(A57G)): 156 nM
- stoichiometry N (AS25_(A57G)): 1
- Kd (AS25_(Y45A-A57G)): 2690 nM
- stoichiometry N (AS25_(Y45A-A57G)): 1
- Kd (monobody AS25): 180 nM
- stoichiometry N (monobody AS25): 1
- Kd (AS25 A57G monobody): 188 nM
- stoichiometry N (AS25 A57G monobody): 0.864 and 0.817
- Kd (AS25 Y45A-A57G monobody): 3170 nM
- stoichiometry N (AS25 Y45A-A57G monobody): 0.792 and 0.788
- Kd (AS25 monobody): 210 nM
- stoichiometry N (AS25 monobody): 0.861 and 0.869
Substance: Abl1 SH2 domain (from UniProt P00519 112-232) (domain or fragment)
